Laboratory results as given in IntAct's records for PubMed 23035120.

B1: Protein kinase C and casein kinase substrate in neurons protein 1 (Mus musculus), Q61644 (parent)
chain: MSGSYDEASEEITDSFWEVGNYKRTVKRIDDGHRLCNDLMSCVQERAKIEKAYAQQLTDWAKRWRQLIEKGPQYGSLERAWGAMMTEADKVSELHQEVKNSLLNEDLEKVKNWQKDAYHKQIMGGFKETKEAEDGFRKAQKPWAKKMKELEAAKKAYHLACKEERLAMTREMNSKTEQSVTPEQQKKLVDKVDKCRQDVQKTQEKYEKVLEDVGKTTPQYMEGMEQVFEQCQQFEEKRLVFLKEVLLDIKRHLNLAENSSYMHVYRELEQAIRGADAQEDLRWFRSTSGPGMPMNWPQFEEWNPDLPHTTAKKEKQPKKAEGATLSNATGAVESTSQAGDRGSVSSYDRGQTYATEWSDDESGNPFGGNEANGGANPFEDDAKGVRVRALYDYDGQEQDELSFKAGDELTKLGEEDEQGWCRGRLDSGQLGLYPANYVEAI

Variants of: B1
Settings: with Mapt

**Q.** With P434L as the variant, how does the “effect of a mutation on the interaction” value read?
**A.** The value was “disrupting interaction”.
